Experimental data published in article PMC2064741 (The Journal of Cell Biology, 2007).
Read-outs that look alike come from different tables or passages of the source.

Key:
[1] = biological target: T1, Capu-FH1FH2 (Drosophila Capu residues 467-1,058) (Drosophila, UniProt Q24120 467-1058); assay: co-sedimentation
T1 sequence: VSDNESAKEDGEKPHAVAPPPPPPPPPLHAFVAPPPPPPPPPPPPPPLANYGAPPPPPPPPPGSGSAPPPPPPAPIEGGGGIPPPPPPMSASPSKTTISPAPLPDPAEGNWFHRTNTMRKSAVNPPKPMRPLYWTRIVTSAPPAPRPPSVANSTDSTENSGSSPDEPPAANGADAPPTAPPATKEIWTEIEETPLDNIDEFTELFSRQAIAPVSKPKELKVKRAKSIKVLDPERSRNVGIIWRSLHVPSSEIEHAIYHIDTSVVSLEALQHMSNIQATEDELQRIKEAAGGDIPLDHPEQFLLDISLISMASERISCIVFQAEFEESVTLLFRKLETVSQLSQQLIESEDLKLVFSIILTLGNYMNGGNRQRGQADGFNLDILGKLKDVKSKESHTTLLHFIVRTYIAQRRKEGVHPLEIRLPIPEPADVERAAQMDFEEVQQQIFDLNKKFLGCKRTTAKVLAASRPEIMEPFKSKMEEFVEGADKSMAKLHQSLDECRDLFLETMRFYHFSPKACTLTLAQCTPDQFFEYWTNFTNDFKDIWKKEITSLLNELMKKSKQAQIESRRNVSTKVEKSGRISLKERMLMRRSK

[2] = biological target: T1, Capu-FH1FH2 (Drosophila Capu residues …); assay: fluorescence polarisation
[3] = biological target: T2, Capu-FH2 (Drosophila Capu residues 573-1,058) (Drosophila, UniProt Q24120 573-1058); assay: inhibition of formin-driven pyrene-actin assembly
T2 sequence: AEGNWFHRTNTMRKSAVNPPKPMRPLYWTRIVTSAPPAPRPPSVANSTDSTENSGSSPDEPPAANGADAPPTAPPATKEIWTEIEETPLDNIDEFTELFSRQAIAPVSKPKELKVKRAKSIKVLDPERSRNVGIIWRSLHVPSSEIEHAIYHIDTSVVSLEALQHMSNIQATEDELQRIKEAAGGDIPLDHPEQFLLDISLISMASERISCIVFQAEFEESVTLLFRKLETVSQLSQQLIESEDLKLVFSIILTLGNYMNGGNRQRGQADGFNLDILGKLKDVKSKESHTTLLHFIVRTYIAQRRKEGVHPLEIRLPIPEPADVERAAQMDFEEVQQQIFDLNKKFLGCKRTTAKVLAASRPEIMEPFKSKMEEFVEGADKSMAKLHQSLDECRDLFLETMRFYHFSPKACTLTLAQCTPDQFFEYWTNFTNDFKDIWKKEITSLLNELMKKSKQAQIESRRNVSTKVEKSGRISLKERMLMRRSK

[4] = biological target: T2, Capu-FH2 (Drosophila Capu residues …); assay: fluorescence polarisation
[5] = biological target: T1, Capu-FH1FH2 (Drosophila Capu residues …); assay: fluorescence polarisation; remark: listed apart in the source
AUC = biological target: the molecule itself; assay: AUC
[6] = biological target: phalloidin-stabilized actin filaments; assay: co-sedimentation
[7] = biological target: phalloidin-stabilized actin filaments; assay: co-sedimentation; remark: listed apart in the source
[8] = biological target: T3, Fmn2-FH2 (formin-2 residues 1,124-1,567) ( (printed as m-Fmn2, …, UniProt Q9JL04 1135-1578)); assay: fluorescence polarisation
T3 sequence (Q9JL04 1135-1578): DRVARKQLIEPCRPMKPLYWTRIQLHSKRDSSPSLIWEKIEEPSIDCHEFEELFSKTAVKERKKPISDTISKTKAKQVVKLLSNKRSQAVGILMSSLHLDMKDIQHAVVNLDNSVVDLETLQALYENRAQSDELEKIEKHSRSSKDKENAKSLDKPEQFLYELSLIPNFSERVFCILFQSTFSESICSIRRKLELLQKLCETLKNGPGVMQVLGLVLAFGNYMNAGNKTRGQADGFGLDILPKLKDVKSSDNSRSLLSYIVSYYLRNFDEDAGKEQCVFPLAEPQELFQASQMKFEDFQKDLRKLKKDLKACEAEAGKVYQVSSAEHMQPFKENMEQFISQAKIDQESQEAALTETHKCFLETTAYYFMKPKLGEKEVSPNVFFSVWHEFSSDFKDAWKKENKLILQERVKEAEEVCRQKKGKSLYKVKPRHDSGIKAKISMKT

[9] = biological target: T3, Fmn2-FH2 (formin-2 residues 1,124-1,567); assay: inhibition of formin-driven pyrene-actin assembly
[10] = biological target: T1, Capu-FH1FH2 (Drosophila Capu residues …); assay: other fluorescence titration

B1: NTSpir (Drosophila Spir residues 1-520) (domain or fragment)
chain: MTEHQAEEQADTPPTKVKATPTPTPSGKFKDAKEDAFLSTSPDSANGDAQHKLPADQLAMSSSAHPQQAGQARPLILQAFHRCSSPEQCVTLHDILDSFKAPLSEDQAWALIHQFAGLYHQVAVQAHTCAADYEAALPTGFELHFHRDGSVHFSGPDQLTPKEQLQQEQIPLPPQHDVIVDQPDHSASSSGDSSVINRAFDNSNHHHHHQHHHPPLVVSHRKIISELAEIVYTALDYNLPEDEECQVSQELENLFNFMTADETDDDCIDEGIDEGDKRWDDESEEERNDTKELEHIIETCRNHIKTTLPENHYRAVCRALVTETIELRVFLQQVLNNEAGAEKLIKASESSATTQQELAKLGFNDWARFWVQVIDELRRGVRLKKSNHERTPIEYELTPYEILMGDIRAKKYQLRKVMVNGDIPPRVKKDAHAMILEFIRSRPPLKKASDRQLGPPRMCEPSPREQLMESIRKGKELKQITPPEAPTLRERVLPSANSTLSRSRQRLIKVDFSKFQDDDL
- binding result [1]: binds

B2: KIND (Drosophila Spir residues 1-327), unlabeled (domain or fragment)
chain: MTEHQAEEQADTPPTKVKATPTPTPSGKFKDAKEDAFLSTSPDSANGDAQHKLPADQLAMSSSAHPQQAGQARPLILQAFHRCSSPEQCVTLHDILDSFKAPLSEDQAWALIHQFAGLYHQVAVQAHTCAADYEAALPTGFELHFHRDGSVHFSGPDQLTPKEQLQQEQIPLPPQHDVIVDQPDHSASSSGDSSVINRAFDNSNHHHHHQHHHPPLVVSHRKIISELAEIVYTALDYNLPEDEECQVSQELENLFNFMTADETDDDCIDEGIDEGDKRWDDESEEERNDTKELEHIIETCRNHIKTTLPENHYRAVCRALVTETIEL
- Kd [2]: 5 ± 3 nM
- Ki [3]: 5 ± 1 nM

B3: AlexaFluor488-labeled KIND (Drosophila Spir residues 1-327) (domain or fragment)
chain: MTEHQAEEQADTPPTKVKATPTPTPSGKFKDAKEDAFLSTSPDSANGDAQHKLPADQLAMSSSAHPQQAGQARPLILQAFHRCSSPEQCVTLHDILDSFKAPLSEDQAWALIHQFAGLYHQVAVQAHTCAADYEAALPTGFELHFHRDGSVHFSGPDQLTPKEQLQQEQIPLPPQHDVIVDQPDHSASSSGDSSVINRAFDNSNHHHHHQHHHPPLVVSHRKIISELAEIVYTALDYNLPEDEECQVSQELENLFNFMTADETDDDCIDEGIDEGDKRWDDESEEERNDTKELEHIIETCRNHIKTTLPENHYRAVCRALVTETIEL
- Kd [4]: 9 ± 6 nM
- Kd [5]: 1 ± 2 nM

B4: AlexaFluor488-labeled Capu-FH1FH2 with C-terminal Lys-Cys-Lys (domain or fragment)
chain: VSDNESAKEDGEKPHAVAPPPPPPPPPLHAFVAPPPPPPPPPPPPPPLANYGAPPPPPPPPPGSGSAPPPPPPAPIEGGGGIPPPPPPMSASPSKTTISPAPLPDPAEGNWFHRTNTMRKSAVNPPKPMRPLYWTRIVTSAPPAPRPPSVANSTDSTENSGSSPDEPPAANGADAPPTAPPATKEIWTEIEETPLDNIDEFTELFSRQAIAPVSKPKELKVKRAKSIKVLDPERSRNVGIIWRSLHVPSSEIEHAIYHIDTSVVSLEALQHMSNIQATEDELQRIKEAAGGDIPLDHPEQFLLDISLISMASERISCIVFQAEFEESVTLLFRKLETVSQLSQQLIESEDLKLVFSIILTLGNYMNGGNRQRGQADGFNLDILGKLKDVKSKESHTTLLHFIVRTYIAQRRKEGVHPLEIRLPIPEPADVERAAQMDFEEVQQQIFDLNKKFLGCKRTTAKVLAASRPEIMEPFKSKMEEFVEGADKSMAKLHQSLDECRDLFLETMRFYHFSPKACTLTLAQCTPDQFFEYWTNFTNDFKDIWKKEITSLLNELMKKSKQAQIESRRNVSTKVEKSGRISLKERMLMRRSKKCK
modifications: AlexaFluor488-maleimide on the cysteine of the C-terminal Lys-Cys-Lys (~100% labeled)
- stoichiometry N (AUC): 2

B5: Capu-FH1FH2 (Drosophila Capu residues 467-1,058) (domain or fragment)
chain: VSDNESAKEDGEKPHAVAPPPPPPPPPLHAFVAPPPPPPPPPPPPPPLANYGAPPPPPPPPPGSGSAPPPPPPAPIEGGGGIPPPPPPMSASPSKTTISPAPLPDPAEGNWFHRTNTMRKSAVNPPKPMRPLYWTRIVTSAPPAPRPPSVANSTDSTENSGSSPDEPPAANGADAPPTAPPATKEIWTEIEETPLDNIDEFTELFSRQAIAPVSKPKELKVKRAKSIKVLDPERSRNVGIIWRSLHVPSSEIEHAIYHIDTSVVSLEALQHMSNIQATEDELQRIKEAAGGDIPLDHPEQFLLDISLISMASERISCIVFQAEFEESVTLLFRKLETVSQLSQQLIESEDLKLVFSIILTLGNYMNGGNRQRGQADGFNLDILGKLKDVKSKESHTTLLHFIVRTYIAQRRKEGVHPLEIRLPIPEPADVERAAQMDFEEVQQQIFDLNKKFLGCKRTTAKVLAASRPEIMEPFKSKMEEFVEGADKSMAKLHQSLDECRDLFLETMRFYHFSPKACTLTLAQCTPDQFFEYWTNFTNDFKDIWKKEITSLLNELMKKSKQAQIESRRNVSTKVEKSGRISLKERMLMRRSK
- Kd [6]: 6 nM
- Kd [7]: 7 nM

B6: AlexaFluor488-labeled Spir-1–KIND (human Spir-1 residues 2-271) (domain or fragment)
chain: AQAAGPAGGGEPRTEAVGGEGPREPGAAGGAAGGSRDALSLEEILRLYNQPINEEQAWAVCYQCCGSLRAAARRRQPRHRVRSAAQIRVWRDGAVTLAPAADDAGEPPPVAGKLGYSQCMETEVIESLGIIIYKALDYGLKENEERELSPPLEQLIDHMANTVEADGSNDEGYEAAEEGLGDEDEKRKISAIRSYRDVMKLCAAHLPTESDAPNHYQAVCRALFAETMELHTFLTKIKSAKENLKKIQEMEKSDESSTDLEELKNADWAR
- Kd [8]: 300 ± 60 nM

B7: Spir-1–KIND (human Spir-1 residues 2-271), unlabeled (domain or fragment)
chain: AQAAGPAGGGEPRTEAVGGEGPREPGAAGGAAGGSRDALSLEEILRLYNQPINEEQAWAVCYQCCGSLRAAARRRQPRHRVRSAAQIRVWRDGAVTLAPAADDAGEPPPVAGKLGYSQCMETEVIESLGIIIYKALDYGLKENEERELSPPLEQLIDHMANTVEADGSNDEGYEAAEEGLGDEDEKRKISAIRSYRDVMKLCAAHLPTESDAPNHYQAVCRALFAETMELHTFLTKIKSAKENLKKIQEMEKSDESSTDLEELKNADWAR
- Ki [9]: 190 ± 40 nM

B8: AlexaFluor488-labeled WH2 cluster, KCK-WH2(C459S) (Drosophila Spir residues 366-482) (domain or fragment)
chain: KCKWARFWVQVIDELRRGVRLKKSNHERTPIEYELTPYEILMGDIRAKKYQLRKVMVNGDIPPRVKKDAHAMILEFIRSRPPLKKASDRQLGPPRMSEPSPREQLMESIRKGKELKQITP
modifications: AlexaFluor488-maleimide on the cysteine of the N-terminal Lys-Cys-Lys (~100% labeled)
- Kd [10]: 2400 ± 900 nM
